Measured values published in the supplement of paper PMC10567573.

B1: ZNF449 (parent)
chain: EPHKCPECGKRFLRSSDLYRHQRL

Variants of: B1
Assay: protein stability index of a GFP-peptide fusion (GPS, HEK-293T) (PSI 1-6); higher = more stable
Conditions: c terminus: a fixed tail appended
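Also: lentivirally expressed fusions sorted by FACS into six bins by GFP to DsRed ratio, PSI derived from sequencing read proportions per bin multiplied by bin number.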

First: EPHKCPECGKRFLRSSTLYRHQRL
Second: EPHKCPECGKRFLRSSDLYRHQGL
The protein stability index of the first is lower: 2.36 for the first, 3.54 for the second.

Compared with EPHKTPECGKRFLRSSDLYRHQRL, EPHKCPECGKRFLRSSDLYREQRL is lower in protein stability index: 2.79 for the first, 2.15 for the second.

Compared with EPHDCPECGKRFLRSSDLYRHQRL, EPHKCPECGKRFLRCSDLYRHQRL is lower in protein stability index: 4.36 for the first, 3.42 for the second.

First: EPHKCPECGKRFLRSSDLMRHQRL
Second: EPHNCPECGKRFLRSSDLYRHQRL
The protein stability index of the first is lower: 3.65 for the first, 4.09 for the second.

First: EPHKCPECGKRFLRSSDQYRHQRL
Second: EPHKCPECGKRGLRSSDLYRHQRL
The protein stability index of the first is higher: 2.46 for the first, 2.12 for the second.

Going from EPHKCPECGKRFLRSSVLYRHQRL to EPHKCPLCGKRFLRSSDLYRHQRL, the protein stability index rises from 1.69 to 3.51.

First: EPHKCPECGKRFLRSSDLNRHQRL
Second: EPHKCPECGKRFGRSSDLYRHQRL
The protein stability index of the first is lower: 3.4 for the first, 3.88 for the second.

Going from EPHKCPYCGKRFLRSSDLYRHQRL to EPHKCPECGKRFLRSSALYRHQRL, the protein stability index falls from 3.66 to 2.32.

Compared with EPHKRPECGKRFLRSSDLYRHQRL, EPHKCPECGKRFLRSSDLYQHQRL is higher in protein stability index: 3.14 for the first, 4.29 for the second.

Going from EPHKCPMCGKRFLRSSDLYRHQRL to EPHKCPECKKRFLRSSDLYRHQRL, the protein stability index falls from 3.65 to 2.61.

First: EPHKCPECGKRFLRSSYLYRHQRL
Second: GPHKCPECGKRFLRSSDLYRHQRL
The protein stability index of the first is lower: 2.21 for the first, 3.13 for the second.

First: EPHKCPECGKRFLCSSDLYRHQRL
Second: EPHKCPECGKRFLRSSDIYRHQRL
The protein stability index of the first is higher: 3.86 for the first, 2.52 for the second.

Compared with EPHKCPECGKRFLRSSDLYRHTRL, EPHKCPECGKRFLRSSDLFRHQRL is higher in protein stability index: 3.3 for the first, 3.96 for the second.

Going from EPHKCPECGKRFLDSSDLYRHQRL to VPHKCPECGKRFLRSSDLYRHQRL, the protein stability index falls from 4.29 to 2.67.

First: EPHKCPRCGKRFLRSSDLYRHQRL
Second: EPHKCPECGKIFLRSSDLYRHQRL
The protein stability index of the first is lower: 3.17 for the first, 4.63 for the second.

Compared with EPHKCPECGKRFLRSSDNYRHQRL, EPHKCPECGKRFLRSSDLWRHQRL is higher in protein stability index: 2.67 for the first, 2.86 for the second.

Compared with EPHKCPECGKRFLRVSDLYRHQRL, EPHKCPECGKRFLRSSDLYRHQNL is higher in protein stability index: 3.58 for the first, 4.4 for the second.

First: EPHKCPECGIRFLRSSDLYRHQRL
Second: EPHKCPECGKRFLRSSDDYRHQRL
The protein stability index of the first is higher: 3.32 for the first, 2.87 for the second.

Compared with EPHKCPECGKRFLMSSDLYRHQRL, FPHKCPECGKRFLRSSDLYRHQRL is lower in protein stability index: 3.61 for the first, 2.93 for the second.

Going from EPHKCPECGKRFLRSVDLYRHQRL to EPHKCPECGKRFVRSSDLYRHQRL, the protein stability index rises from 3.81 to 4.32.

Going from EPHKCPECGKRFLRSSDLYRHQRC to EPHKCPECGKRFLRSSDLYRHQTL, the protein stability index falls from 4.97 to 4.01.

First: EPHKCPECGKRFLRSSWLYRHQRL
Second: EPHKCDECGKRFLRSSDLYRHQRL
The protein stability index of the first is lower: 1.72 for the first, 4.46 for the second.

Going from EPHKCPECGFRFLRSSDLYRHQRL to EPHKCPECGKRFLRSSDLLRHQRL, the protein stability index rises from 2.52 to 4.04.

First: EPHKCPECGKLFLRSSDLYRHQRL
Second: EPHKCPECGKRFLRSSDHYRHQRL
The protein stability index of the first is higher: 4.57 for the first, 3.5 for the second.

Going from EPHKCPECGKRFLRSSDLYRHQLL to ENHKCPECGKRFLRSSDLYRHQRL, the protein stability index falls from 3.7 to 3.37.

Going from EPHKCFECGKRFLRSSDLYRHQRL to EPHPCPECGKRFLRSSDLYRHQRL, the protein stability index rises from 3.22 to 3.42.

First: EPSKCPECGKRFLRSSDLYRHQRL
Second: EPHHCPECGKRFLRSSDLYRHQRL
The protein stability index of the first is lower: 2.97 for the first, 4.09 for the second.

First: EPHKNPECGKRFLRSSDLYRHQRL
Second: EPHKCMECGKRFLRSSDLYRHQRL
The protein stability index of the first is lower: 3.41 for the first, 3.88 for the second.

First: EPHKMPECGKRFLRSSDLYRHQRL
Second: EPHKCPECGKRFLRSSDLYRHQML
The protein stability index of the first is lower: 3.06 for the first, 3.47 for the second.

Compared with EAHKCPECGKRFLRSSDLYRHQRL, EPHKCPECGKRFMRSSDLYRHQRL is higher in protein stability index: 3.5 for the first, 4.48 for the second.

Compared with EPHKCPECGKRFLRSSRLYRHQRL, EPHKCPENGKRFLRSSDLYRHQRL is higher in protein stability index: 2.34 for the first, 3.16 for the second.

First: EPHKCPECGKRFLRSSDLYRHQRG
Second: EPHKCPEAGKRFLRSSDLYRHQRL
The protein stability index of the first is higher: 4.52 for the first, 3.24 for the second.

First: EPHKCPECGKRFLRSSCLYRHQRL
Second: EPHKHPECGKRFLRSSDLYRHQRL
The protein stability index of the first is lower: 2.66 for the first, 3.19 for the second.

Going from EPFKCPECGKRFLRSSDLYRHQRL to EPKKCPECGKRFLRSSDLYRHQRL, the protein stability index falls from 4.09 to 3.23.

Going from HPHKCPECGKRFLRSSDLYRHQRL to EPHKCPECGKRFLRSSDLYRHQDL, the protein stability index rises from 3.45 to 4.32.

First: EPLKCPECGKRFLRSSDLYRHQRL
Second: EPHKCPECGKRFLRSSDLYRHQRT
The protein stability index of the first is higher: 4.89 for the first, 4.06 for the second.

Compared with EPHKCPECGKRFLRSSDYYRHQRL, EPHKCPEDGKRFLRSSDLYRHQRL is higher in protein stability index: 2.97 for the first, 4.03 for the second.

First: EPHKCPEWGKRFLRSSDLYRHQRL
Second: EPHKCPKCGKRFLRSSDLYRHQRL
The protein stability index of the first is lower: 2.64 for the first, 4.14 for the second.

Compared with EPHKCPECGKRWLRSSDLYRHQRL, EPHFCPECGKRFLRSSDLYRHQRL is higher in protein stability index: 1.93 for the first, 3.98 for the second.

Compared with EPHKCPECGKRFLRSSGLYRHQRL, EPHKCPECGKRFLRSIDLYRHQRL is higher in protein stability index: 2.58 for the first, 3.26 for the second.

Going from EPHKCPECGKRFLRSSDLYHHQRL to EPHKCCECGKRFLRSSDLYRHQRL, the protein stability index falls from 4.14 to 3.75.

First: EPHKCPECGKRFLRSFDLYRHQRL
Second: EPHKCPECGKRFLLSSDLYRHQRL
The protein stability index of the first is lower: 2.09 for the first, 3.51 for the second.

First: EPHKGPECGKRFLRSSDLYRHQRL
Second: EPHKCPECGKRFLRSSDLYEHQRL
The protein stability index of the first is lower: 2.63 for the first, 4.63 for the second.

First: EPHKCPECGKRFLRRSDLYRHQRL
Second: EPHKCPECGKRFIRSSDLYRHQRL
The protein stability index of the first is higher: 3.53 for the first, 3.5 for the second.

First: EPHKCPECGMRFLRSSDLYRHQRL
Second: EPHVCPECGKRFLRSSDLYRHQRL
The protein stability index of the first is lower: 3.99 for the first, 4.7 for the second.

Compared with EWHKCPECGKRFLRSSDLYRHQRL, EKHKCPECGKRFLRSSDLYRHQRL is higher in protein stability index: 3.22 for the first, 3.57 for the second.

First: EPHKCPECTKRFLRSSDLYRHQRL
Second: EPHKCPECPKRFLRSSDLYRHQRL
The protein stability index of the first is lower: 2.32 for the first, 2.82 for the second.
